Tests used:
HeLa Kyoto [1] = test: melting temperature (median over replicates), in situ; higher = more thermally stable
HeLa Kyoto [2] = test: solubility change mitosis vs G1/S (difference of NP-40 vs SDS log2 ratios) (log2 ratio difference); higher = more soluble in mitosis
HeLa Kyoto [3] = test: solubility in G1/S (NP-40 vs SDS abundance) (log2 ratio); higher = more soluble; details: cell cycle stage: G1/S
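Throughout, for melting temperature (median over replicates), in situ: HeLa Kyoto cells synchronized by double thymidine or nocodazole block, proteins quantified by TMT10plex mass spectrometry, three independent biological replicates.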
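Throughout, for solubility change mitosis vs G1/S (difference of NP-40 vs SDS log2 ratios): synchronized HeLa Kyoto cells (double thymidine block for G1/S, nocodazole release for mitosis), protein amounts in NP-40 versus SDS lysates quantified by mass spectrometry, three biological replicates.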
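Throughout, for solubility in G1/S (NP-40 vs SDS abundance): HeLa Kyoto cells arrested at G1/S by double thymidine block, proteins quantified by TMT10plex mass spectrometry in mild NP-40 versus SDS extracts, three biological replicates.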

Row | Sequence | melting temperature (HeLa Kyoto [1]; cell cycle stage: G1/S) [°C] | solubility change mitosis (log2) (HeLa Kyoto [2]) | solubility in G1/S (log2) (HeLa Kyoto [3]) | melting temperature (HeLa Kyoto [1]; cell cycle stage: mitosis) [°C]
1 | MAASRYRRFLKLCEEWPVDETKRGRDLGAYLRQRVAQAFREGENTQVAEPEACDQMYESLARLHSNYYKHKYPRPRDTSFSGLSLEEYKLILSTDTLEELKEIDKGMWKKLQEKFAPKGPEEDHKA [UQCC2] | 45.6 | 0.507 | 0.0537 | –
2 | MAATMKKAAAEDVNVTFEDQQKINKFARNTSRITELKEEIEVKKKQLQNLEDACDDIMLADDDCLMIPYQIGDVFISHSQEETQEMLEEAKKNLQEEIDALESRVESIQRVLADLKVQLYAKFGSNINLEADES [PFDN4] | 55.5 | 0.523 | -0.219 | 53.5
3 | MAAVFDLDLETEEGSEGEGEPELSPADACPLAELRAAGLEPVGHYEEVELTETSVNVGPERIGPHCFELLRVLGKGGYGKVFQVRKVQGTNLGKIYAMKVLRKAKIVRNAKDTAHTRAERNILESVKHPFIVELAYAFQTGGKLYLILECLSGGELFTHLEREGIFLEDTACFYLAEITLALGHLHSQGIIYRDLKPENIMLSSQGHIKLTDFGLCKESIHEGAVTHTFCGTIEYMAPEILVRSGHNRAVDWWSLGALMYDMLTGSPPFTAENRKKTMDKIIRGKLALPPYLTPDARDLVKKFLKRNPSQRIGGGPGDAADVQRHPFFRHMNWDDLLAWRVDPPFRPCLQSEEDVSQFDTRFTRQTPVDSPDDTALSESANQAFLGFTYVAPSVLDSIKEGFSFQPKLRSPRRLNSSPRAPVSPLKFSPFEGFRPSPSLPEPTELPLPPLLPPPPPSTTAPLPIRPPSGTKKSKRGRGRPGR [RPS6KB2] | 51.3 | 0.0325 | -0.0277 | 50.9
4 | MAENHCELLSPARGGIGAGLGGGLCRRCSAGLGALAQRPGSVSKWVRLNVGGTYFLTTRQTLCRDPKSFLYRLCQADPDLDSDKDETGAYLIDRDPTYFGPVLNYLRHGKLVINKDLAEEGVLEEAEFYNITSLIKLVKDKIRERDSKTSQVPVKHVYRVLQCQEEELTQMVSTMSDGWKFEQLVSIGSSYNYGNEDQAEFLCVVSKELHNTPYGTASEPSEKAKILQERGSRM [KCTD5] | 56.7 | -0.0362 | 0.136 | 57.5
5 | MAEPDYIEDDNPELIRPQKLINPVKTSRNHQDLHRELLMNQKRGLAPQNKPELQKVMEKRKRDQVIKQKEEEAQKKKSDLEIELLKRQQKLEQLELEKQKLQEEQENAPEFVKVKGNLRRTGQEVAQAQES [FAM107B] | 57.3 | 0.435 | 0.00364 | –
6 | MAFTNYSSLNRAQLTFEYLHTNSTTHEFLFGALAELVDNARDADATRIDIYAERREDLRGGFMLCFLDDGAGMDPSDAASVIQFGKSAKRTPESTQIGQYGNGLKSGSMRIGKDFILFTKKEDTMTCLFLSRTFHEEEGIDEVIVPLPTWNARTREPVTDNVEKFAIETELIYKYSPFRTEEEVMTQFMKIPGDSGTLVIIFNLKLMDNGEPELDIISNPRDIQMAETSPEGTKPERRSFRAYAAVLYIDPRMRIFIHGHKVQTKRLSCCLYKPRMYKYTSSRFKTRAEQEVKKAEHVARIAEEKAREAESKARTLEVRLGGDLTRDSRVMLRQVQNRAITLRREADVKKRIKEAKQRALKEPKELNFVFGVNIEHRDLDGMFIYNCSRLIKMYEKVGPQLEGGMACGGVVGVVDVPYLVLEPTHNKQDFADAKEYRHLLRAMGEHLAQYWKDIAIAQRGIIKFWDEFGYLSANWNQPPSSELRYKRRRAMEIPTTIQCDLCLKWRTLPFQLSSVEKDYPDTWVCSMNPDPEQDRCEASEQKQKVPLGTFRKDMKTQEEKQKQLTEKIRQQQEKLEALQKTTPIRSQADLKKLPLEVTTRPSTEEPVRRPQRPRSPPLPAVIRNAPSRPPSLPTPRPASQPRKAPVISSTPKLPALAAREEASTSRLLQPPEAPRKPANTLVKTASRPAPLVQQLSPSLLPNSKSPREVPSPKVIKTPVVKKTESPIKLSPATPSRKRSVAVSDEEEVEEEAERRKERCKRGRFVVKEEKKDSNELSDSAGEEDSADLKRAQKDKGLHVEVRVNREWYTGRVTAVEVGKHVVRWKVKFDYVPTDTTPRDRWVEKGSEDVRLMKPPSPEHQSLDTQQEGGEEEVGPVAQQAIAVAEPSTSECLRIEPDTTALSTNHETIDLLVQILRNCLRYFLPPSFPISKKQLSAMNSDELISFPLKEYFKQYEVGLQNLCNSYQSRADSRAKASEESLRTSERKLRETEEKLQKLRTNIVALLQKVQEDIDINTDDELDAYIEDLITKGD [MORC2] | 48.1 | -0.0838 | -0.0374 | 48.6
7 | MAGSPELVVLDPPWDKELAAGTESQALVSATPREDFRVRCTSKRAVTEMLQLCGRFVQKLGDALPEEIREPALRDAQWTFESAVQENISINGQAWQEASDNCFMDSDIKVLEDQFDEIIVDIATKRKQYPRKILECVIKTIKAKQEILKQYHPVVHPLDLKYDPDPAPHMENLKCRGETVAKEISEAMKSLPALIEQGEGFSQVLRMQPVIHLQRIHQEVFSSCHRKPDAKPENFITQIETTPTETASRKTSDMVLKRKQTKDCPQRKWYPLRPKKINLDT [NSL1] | 50.2 | -0.0661 | 0.0226 | 49.9
8 | MAHRLQIRLLTWDVKDTLLRLRHPLGEAYATKARAHGLEVEPSALEQGFRQAYRAQSHSFPNYGLSHGLTSRQWWLDVVLQTFHLAGVQDAQAVAPIAEQLYKDFSHPCTWQVLDGAEDTLRECRTRGLRLAVISNFDRRLEGILGGLGLREHFDFVLTSEAAGWPKPDPRIFQEALRLAHMEPVVAAHVGDNYLCDYQGPRAVGMHSFLVVGPQALDPVVRDSVPKEHILPSLAHLLPALDCLEGSTPGL [HDHD3] | 53.9 | 0.0289 | 0.0599 | 54.8
9 | MALITLRKNLYRLSDFQMHRALAALKNKPLNHVHKVVKERLCPWLCSRQPEPFGVKFHHAHCKKFHSKNGNDLHPLGGPVFSQVSDCDRLEQNVKNEESQMFYRRLSNLTSSEEVLSFISTMETLPDTMAAGALQRICEVEKKDGDQGLPKEILENSIFQALCFQFEKEPSQLSNTSLVTALQALILLHVDPQSSLLLNLVAECQNRLRKGGMEVRNLCILGESLITLHSSGCVTLELIINQLQGEKLETFTPEDIVALYRILQACTEKVDEHQTFLNKINNFSLSIVSNLSPKLISQMLTALVVLDQSQAFPLIIKLGKYVVRHVPHFTNEELRRVLEAFIYFGHHDTFFTKALEHRVAAVCLTLDPEVVCRVMEYCSRELILSKPILNAVAETFVCQTEKFSPRQISALMEPFGKLNYLPPNASALFRKLENVLFTHFNYFPPKSLLKLLHSCSLNECHPVNFLAKIFKPLFLQRLQGKESHLDTLSRAQLTQLFLASVLECPFYKGPKLLPKYQVKSFLTPCCSLETPVDSQLYRYVKIGLTNLLGARLYFAPKVLTPYCYTIDVEIKLDEEGFVLPSTANEDIHKRIALCIDGPKRFCSNSKHLLGKEAIKQRHLQLLGYQVVQIPYHEIGMLKSRRELVEYLQRKLFSQNTVHWLQE [FASTKD3] | – | -0.151 | -0.00458 | 47.8
10 | MALLAEHLLKPLPADKQIETGPFLEAVSHLPPFFDCLGSPVFTPIKADISGNITKIKAVYDTNPAKFRTLQNILEVEKEMYGAEWPKVGATLALMWLKRGLRFIQVFLQSICDGERDENHPNLIRVNATKAYEMALKKYHGWIVQKIFQAALYAAPYKSDFLKALSKGQNVTEEECLEKIRLFLVNYTATIDVIYEMYTQMNAELNYKV [GLTP] | – | -0.117 | -0.139 | 53.3

Reference: the supplement of paper PMC5998384
